Laboratory results from the supplement of paper PMC12667976.

B1: library; numbered along this chain (parent)
chain: MATDAALRRLLRLHRTEIAVAVDSAFPLLHALADHDVVPEDKFQETLHLKEKEGCPQAFHALLSWLLTQDSTAILDFWRVLFKDYNLERYGRLQPILDSFPKDVDLSQPRKGRKPPAVPKALVPPPRLPTKRKASEEARAAAPAALTPRGTASPGSQLKAKPPKKPESSAEQQRLPLGNGIQTMSASVQRAVAMSSGDVPGARGAVEGILIQQVFESGGSKKCIQVGGEFYTPSKFEDSGSGKNKARSSSGPKPLVRAKGAQGAAPGGGEARLGQQGSVPAPLALPSDPQLHQKNEDECAVCRDGGELICCDGCPRAFHLACLSPPLREIPSGTWRCSSCLQATVQEVQPRAEEPRPQEPPVETPLPPGLRSAGEEVRGPPGEPLAGMDTTLVYKHLPAPPSAAPLPGLDSSALHPLLCVGPEGQQNLAPGARCGVCGDGTDVLRCTHCAAAFHWRCHFPAGTSRPGTGLRCRSCSGDVTPAPVEGVLAPSPARLAPGPAKDDTASHEPALHRDDLESLLSEHTFDGILQWAIQSMARPAAPFPS

Variants of: B1
Experiment: AIRE transcriptional activation functional score (insulin promoter-GFP; nonsense median 0, synonymous median 1) (normalised score); higher = higher AIRE activity (more reporter activation)
Settings: with insulin promoter-GFP reporter in HEK293
How it was run: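 Flp-In T-REx HEK293 landing-pad cells carrying an insulin core promoter-GFP reporter received codon-optimized AIRE NNN-codon libraries (three regions) through Bxb1 recombinase. Sorting of mCherry+, BFP− integrants took place at day 7, followed by 7 days of expansion and tile-sequencing of top 10% GFP and unselected integrant populations. A functional score was derived from select versus non-select variant enrichment with wild type subtracted. Values from variants reaching 10 counts per million in non-select were set to nonsense median 0 and synonymous median 1 and averaged over biological replicates.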

AIRE transcriptional activation functional score, by site and new letter:
C322: V 0.9 | Y 0.843 | W 0.487
P331: T 0.972 | N 1.23 | E 0.93 | D 1.29 | Q 0.548 | W 1.26 | H 0.817 | S 0.73 | M 1.35 | G 1.07 | F 0.62 | K 0.702 | L 0.9 | A 1.19 | Y 1.08 | R 1.41 | C 1 | I 1.59 | V 1.21
S338: G 1.11 | Y 1.11 | P 0.56 | D 1.08 | I 1.18 | H 1.25 | M 1.32 | N 1.3 | R 1.2 | Q 0.916 | W 0.904 | F 0.948 | V 0.911 | K 1.08 | L 1.01 | E 0.862 | T 1.21 | A 0.683
L327: A 1.07 | T 0.786 | N 1.37 | W 1.69 | I 0.913 | C 0.927 | Q 1.33 | P 0.673 | M 1.3 | F 1.21 | G 0.535 | D 0.96 | Y 1.2 | R 1.05 | H -0.118 | V 0.621 | E 0.71 | K 0.524 | S 1.14
P325: W 0.913 | S 1.21 | C 1.04 | E 1.45 | Y 1.18 | L 1.12 | K 1.55 | Q 0.938 | G 1.1 | D 0.208 | N 0.521 | I 1.07 | F 1.01 | A 1.15 | H 0.387 | R 0.876 | T 0.777 | M 1.15 | V 0.965
W335: L 0.997 | T 1.26 | G 1.27 | D 1.1 | Q 1.19
